Assay results: the DeepSol protein solubility set

Assay: soluble on expression in E. coli; label from the status in PepcDB or PDB records
With “MPSQITRSSHSSLPEVAPASGDAAGVSEQTPQQARTVAFFASGELAVAFGRTSTAPAQDSVRLLSALQRELDKQQPSWPTVAQLCHSLAEVAKTEQGWHQLASEDQAPAPALKDLLERCIGRLADMPASHASHDSLSLACEGLRTARLHQSVARLTARPPALARAIPDLLALTHLDPETLGAEPPVVSSYTLFSHFVHTAKQRTAELNDSLQRQPEAVVSLLRSHADTLNDLETLPGALQALTENCQDAPACNELRELAEVVGALLQLLREHGILPRLEAISIEPGEAPAPGHEAAEPRLTRSQALLKAGGNLVRKFDAYGALAPMDDKGLLALMRTPAPHLSPDQMHAFLNKHVLHLTQEQRDIVSNTPLPFAPEGDIEARCGMGFDEKLRLALANGSLVLSEEQLARLGHLPSAATTTSDVVKTLLEKPSSALSEAERDMLGAIVQANGQGQLDAWRAHNEQLPAVLSRSGLPSDVKDELLSLNQSMNAELGTLKNGASFKSRILASPAMLLALAPLPLAVAFVSKDNSYSSSLVAHFTKNAVFMAGLMMNELTNARTNVDHGLNRYFVTVLANAIVAQPTFARNEHLLEQVGFGIATAVASGAATLGVFNRESIVAAFKLAKSKLSRQDTGNASIPEEDHLAVVRHFDVSEHFAQQMKVATELYKQDKSITDIMNSSLTYLGTKSSEFQARFESVDALRAGLQLAEGERKADPDFYTKLGLVALTASIGAALVMLMKSMVGKADYAADGVWCVSEMLKLAMNPEVDMQKAVQVFKEIVGLNLVMTGFLGVNKVWNFLDKGIKGYASGAAVLTAANLTLPGMVGEVAGAAAGKGLSYLTDKGKAAHQAGRAAASWAGNYVGTSRLGSAVGTLQTAIPGRIAGGQVVAGLYDRFRYLTGSHPTPAQQAAGEP” the “soluble on expression in E. coli” value was “not soluble”. For “MGSDKIHHHHHHMREQLDQVGSGGVTGATGLLGNNLVRELVARGYTVKGLVRSKAKGEQQFNNLPGVELVVGDMAEVDAFAASLQGCDTVFHTASFFRDNYKGGSHWKELEQINVSGTRRLLEQAYGAGIRRFIHTSSIAVLNGAPGTSIEENCLRADADADDYYRSKILADRVVLSFLESHPQMHACMVLPGWMWGPGDVGPTSSGQLVNDVVQGKLPGLIPGSFSIVDARDVALAHIAAARHGRRGERYLAAGRHMTMRELMPVLGRMAGVKTPARQIPLPFLYTLAAVQEIYARLTGRPILLSMATLRLLVREQDRTRFDHRKSEQELGLSFRALELTIADTVAWYRDHGWFEKGSRL”, the “soluble on expression in E. coli” value was “not soluble”. For “MIKNILILSSNNTGHGHKSITESLLEQFSHYPDVNVHVIDGFTLAGNFGLRIGKLYGSVTRNAKELWKLVWELSLKKPSLLNDFTEVAIKDNFLKLICNIKPDLILSVHPNFNGSVLNILEDYNIKVPFVTLLADIVSITPLWADPRADYIICPSKESKFKCLEFGVSESKLIETGFPVRQKFLKLEHHHHHH”, the “soluble on expression in E. coli” value was “not soluble”. For “MGSDKIHHHHHHMDGEGMSVGHYENFPVGSLILPRRLRKPVHAVYAFARTADDMADEGSMPSEARLSGLEGLRRELDVLASGGRSAHPLIARLDAEAVVPFGLDLQPFYDLLSAFSQDVVKTRYAHFGDLTDYCRRSANPVGRIMLALYGKTDAVCVAQSDGICTALQLVNFWQDVAVDWQKGRVYIPQDDLLKFGVSEEQIAAGRADAAFQRLMAYECRRAFRMLKAGSPLARELKGRIGLELRMIVLGAQLILQKLDACRYDVFAQRPVLDKKDWLIMLKRALWK”, the “soluble on expression in E. coli” value was “not soluble”. For “MRAHTLSRQLREGNLFAEQCPSREVLKHVTSRWGVLILVALRDGTHRFSDLRRKMGGVSEKMLAQSLQALEQDGFLNRVSYPVVPPHVEYSLTPLGEQVSDKVAALADWIELNLPQVLAQRERLSDGG”, the “soluble on expression in E. coli” value was “soluble”. In the case of “MKLPGPDHPISITANPNGVRISADGKVIAETRRALTLQEASYPPVQYIPREDADMRLLEKTARVTHCPYKGDASYFSIVAGGEPQANAVWSYENPFPAMAEIAGYLAFYPQKVQTEEFKP”, the “soluble on expression in E. coli” value is reported as “not soluble”. With “AHHHHHHGSYDELFKKIKEKAKFVDEKLLSLIPEKEPKILYEAARHYPLAGGKRVRPFVVLTATEAVGGEWEKAIYPAVAIELIHNYSLVHDDIMDMDETRRGRPTVHKVWGINMAILAGDLLFSKAFEAISRAEIPPEKKARVLETVVKASNELCEGQAMDLEFEKRDTVTIEEYMRMISGKTGALFDASAKVGGIVGTDNEEYINALSTWGRNVGIAFQIWDDVLDLIADEEKLGKPVGSDIRKGKKTLIVAHFFENADEKDKQKFLKVFGKYAGDVKGEGIIEEDIKAEVMEAIDLLKKYGSIDYAANIAREMVKKANEALKVLPESEARKDLELLARFIVEREY” the “soluble on expression in E. coli” value was “soluble”. In the case of “QAGRFIGQEISGRLSSRSMLAVQIDDLLKLAARFVGEERARQSFIRFAYRQGKGFNPNQNADGEWIAHTERLLAGVLGASSTRAVVKAAIEGREMQLEDVVRIADEASEVLQFNRALLQGAIENITQGISVVDQSL”, the “soluble on expression in E. coli” value is reported as “not soluble”. With “MGSDKIHHHHHHMDMIVTSKKSSRNANSGCAIHCNDCSMSELCIPFTLNANELEELDNIIERKKPVQKGDKLFQSGDGLKSLYAIRSGTIKSYTITQQGDEQITGFHLAGDVIGFDAIHKQAHQSFAEALETSMICEIPFDTLDSLAGTMPKLRQQIMRLMSHEIISDQEMILLLSKKNAEERLAAFIAKLANRFANRGFSPNEFRLSMTRGDIGNYLGLTVETISRLLGRFQKAQMIAVNGKYITIVDHQALNTLADHTEQ” the “soluble on expression in E. coli” value was “not soluble”. For “MFDYSAHPELLKGRVILVTGAARGIGAAAARAYAAHGASVVLLGRTEASLAEVSDQIKSAGQPQPLIIALNLENATAQQYRELAARVEHEFGRLDGLLHNASIIGPRTPLEQLPDEDFMQVMHVNVNATFMLTRALLPLLKRSEDASIAFTSSSVGRKGRANWGAYGVSKFATEGLMQTLADELEGVTAVRANSINPGATRTGMRAQAYPDENPLNNPAPEDIMPVYLYLMGPDSTGINGQALNAQ”, the “soluble on expression in E. coli” value was “soluble”. In the case of “LRSNIDLFYTPGEILYGKRETQQMPEVGQRLRVGGMVMPGSVQRDPNSLKVTFTIYDAEGSVDVSYEGILPDLFREGQGVVVQGELEKGNHILAKEVLAKHDENYTPPEVEKAMEANHRRPASVYKDPASHHHHHH”, the “soluble on expression in E. coli” value is reported as “soluble”. For “MLVAGAGALCLTLSGCAGAGSLGASDQTITIAMVSNSQMQDAQKLASQFEEENPDIDLKFVTLSENQARAKITASTATGGGEFDVVMISNYETPQWAKYGWLKNLSEYAEATEGYDEADFIPTLRESLSYEGNMYSVPFYGESSFLMYRKDLFEQAGITLSEKPTWTEVATAAKQLDSEDMAGICLRGKPGWGELLAPLDTVINTFGGRWFDEDWNAQLTSPEVERAVQFYVDLVREYGEPGAATSGFGECATQLAQGQVAMWYDSTSAVSTLEDPASSAVVGKIGYAPAPIEVKDNSGWLYSWSLGIPESSENPDAAWKFISWMTDKQYIRTVGEDLGWERVPPGSRLSTYEIPEYKEASAAYGPLTLEAIEDATPNAPTVQPVPYTGVQFLAIPEFQDLGTRVSQQISAAIAGQQTVPEALAQAQQYAEVVGATYREDR”, the “soluble on expression in E. coli” value was “not soluble”. For “MAHHHHHHLPALKLALEYIVPCMNKHGICVVDDFLGKETGQQIGDEVRALHDTGKFTDGQLVSQKSDSSKDIRGDKITWIEGKEPGCETIGLLMSSMDDLIRHCNGKLGSYKINGRTKAMVACYPGNGTGYVRHVDNPNGDGRCVTCIYYLNKDWDAKVSGGILRIFPEGKAQFADIEPKFDRLLFFWSDRRNPHEVQPAYATRYAITVWYFDADERARAKVKYLTGEKGVRVELNKPSDSVGKDVF”, the “soluble on expression in E. coli” value was “soluble”. For “SPPNLTPAQSNRVCNSLALLQCVASHSDTRMLFLKAHIPLYLYPFLNTTSKSRPFEYLRLTSLGVIGALVKVDDTEVISFLLSTEIIPLCLRTMEMGSELSKTVATFIVQKILLDDVGMDYICTTAERFFAVGRVLGNMVQSLVEQPSPRLLKHIIRCYLRLSDNPRACAALASCLPDSLRDGSFSNCLREDPTARRWLQQLVHNVGVGRVPTHQGGGFEHML”, the “soluble on expression in E. coli” value was “not soluble”. With “MSLSTIKDIARVAGVSVATVSRVVNNDPKVKEKTKLKVTKVMLDLNYTPNANARALVTQKNTTIGVIIPSLTDPFFASLANGVEQVARQQSMQLLLSTGLVSAESERQAINLLRERRCDVMVVHSKKLTDDELIALSEQIPGLVLIDRHIEQISHRCVWLDNLEGGKIAARHLLALNHQKFASISSKYQIEDPGLRLEGFTRELTGAGFAIDKELIEYGEPNLQGGEIATQHLLSSGKTFSALFVYNDAMAIGAISTLEDNGYRVPQDISVIGFDDVLLSRYSRPKLSTLNYPIEEMAQQAANLAIELTKERKAAKDEYKVESKTHKYVPRLVKRESTSLEGHHHHHH” the “soluble on expression in E. coli” value was “soluble”. In the case of “MSYDTDPFRGEFDSLEEFADRVSDVLKCPVTIEDANHRLIAYSAHDDYTDPARTATIISRRVPEKVINSLWKQGAIPALLKSREPVRVPPIHDVGLGSRVAVSIWKNDEVIGFIWVLETNRTLSPEEMEWLKLAAKAAKNKVLQLYMRKNKKEERVQELFWKLLTGHIAREDDIRAHLAAMQIPTAPQFAVVVFRFAADLTAEMERQISYLLQTTQQLPLLLYTTDGRDVILLAAPKTDQPLKELNAFIESFAAKMKERFHIHDVQCGFGGVYGIYRLIEKSYREALAVLALKEKLGDEIKSVYGYAQLGIYQFFDLLLEQKRQGEWTNPALTKLQSYDQKHHSDLVKTFETFFDHNENAQETADVLNVHPNTLAYRLKRIADIAELDLNDMNQKIKLYIDIKLAKYEARG”, the “soluble on expression in E. coli” value is reported as “not soluble”. With “MAHHHHHHMAKVKMNPKLSSFTANAYEKKRQVGMYSKYIVDANPSGKDPSSSQTNKGNEYEEEDIVEKLRKREQSKQGGDYFMNAYKYTQPSAIIDYSSGEEQEYSQLLKKPKCPQCGVKNCVCGFMRSGGRRAR” the “soluble on expression in E. coli” value was “soluble”. For “MTKQTKYVQTVIDELATKGVEALDAMANFTQEQVDHIVHQAAIAALDKHMYLAKLAVDETGRGIYEDKAIKNMYASEYIWNSIKYDKPVGVIAEDKEQGLVSIAEPVGVICGVTPTTNPTSITIFKALIAL”, the “soluble on expression in E. coli” value was “not soluble”. For “MGSDKIHHHHHHMERKTVLVIADLGGCPPHMFYKSAAEKYNLVSFIPRPFAITASHAALIEKYSVAVIKDKDYFKSLADFEHPDSIYWAHEDHNKPEEEVVEQIVKVAEMFGADAITTNNELFIAPMAKACERLGLRGAGVQAAENARDKNKMRDAFNKAGVKSIKNKRVTTLEDFRAALEEIGTPLILKPTYLASSIGVTLITDTETAEDEFNRVNDYLKSINVPKAVTFEAPFIAEEFLQGEYGDWYQTEGYSDYISIEGIMADGEYFPIAIHDKTPQIGFTETSHITPSILDEEAKKKIVEAAKKANEGLGLQNCATHTEIKLMKNREPGLIESAARFAGWNMIPNIKKVFGLDMAQLLLDVLCFGKDADLPDGLLDQEPYYVADCHLYPQHFKQNGQIPETAEDLVIEAIDIPDGLLKGDTEIVSFSAATPGTSVDLTLFEAFNSIAAFELKGSNSQDVAESIRQIQQHAKLTAKYVLPV”, the “soluble on expression in E. coli” value was “not soluble”. In the case of “DVQLQESGTVLARPGASVKMSCKASGYSFTSYWMHWIKQRPGQGLEWIGGVYPGDSHTSYNQKFKGKAKLTAVTSASTAYMELSSLTNEDSAVYYCTRSGFDYGNEDWGQGTTLTVSSAKTTPPSVYPLAPGSAAQTNSMVTLGCLVKGYFPEPVTVTWNSGSLSSGVHTFPAVLQSDLYTLSSSVTVPSSPRPSETVTCNVAHPASSTKVDKKI”, the “soluble on expression in E. coli” value is reported as “soluble”. With “MALLTSKLRYLLLFYAVFQAAQFGLRWKSYDISPKQFKTIAGKAAAAPTISQSISTLTSGMRTYYEPIMPSHFEWHAIQLGGLTLRMYPMLTAFTEFAAAFSAPFPTSGRPGLHWANTTCTVLKGKVSRFNDGTQDETSENFASGAAFRHGQFESHVYSFEKDTYVACYGRGFLPLSSTVHVTSGISLGEPLSVIQFYMKQAYNYWNNLSHTLYRVFQHYKARATGEL” the “soluble on expression in E. coli” value was “not soluble”.
